Results reported in publication PMC2795169, “The Influence of Recombinant Production on the Immunologic Behavior of Birch Pollen Isoallergens” (PLoS ONE, 2009).

Legend:
Bet v 1.0401 = molecular target: T1, Bet v 1.0401 (Betula pendula, UniProt P43177); test: ANS fluorescence titration, nonlinear regression; format: binding
T1 construct: gene BETV1D; full-length non-fusion protein, no tag, pET28b (Nco I/Eco RI), E. coli BL21 Star (DE3), codon-optimized gene, batch B purified without denaturation
T1 sequence (P43177 2-160): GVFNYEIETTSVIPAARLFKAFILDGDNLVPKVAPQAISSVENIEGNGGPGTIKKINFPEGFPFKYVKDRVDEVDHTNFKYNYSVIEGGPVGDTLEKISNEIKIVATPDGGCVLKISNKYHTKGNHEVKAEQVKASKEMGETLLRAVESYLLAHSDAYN

P43177 = test: dynamic light scattering; DLS in aqueous solution at a concentration of 1 mg/ml; conditions: other: dynamic light scattering
[1] = molecular target: Recombinant Bet v 1.0401 production batch A (birch) (UniProt P43177); test: SEC-MALS; online HPSEC-light scattering (refractive index and right-angle light scattering), 0.5 ml/min, 0.1 M sodium phosphate pH 6.5, 150 mM sodium chloride

O=S(=O)(O)c1cccc2cccc(Nc3ccccc3)c12 [8-anilino-1-naphtalenesulfonic acid]
Kd (Bet v 1.0401): 21.2 µM

B1: Recombinant Bet v 1.0401 production batch A (protein)
chain: MGVFNYEIETTSVIPAARLFKAFILDGDNLVPKVAPQAISSVENIEGNGGPGTIKKINFPEGFPFKYVKDRVDEVDHTNFKYNYSVIEGGPVGDTLEKISNEIKIVATPDGGCVLKISNKYHTKGNHEVKAEQVKASKEMGETLLRAVESYLLAHSDAYN
percent of the protein as aggregates (RH 16 nm) by DLS (P43177): 34% RH of 16±8 nm | percent of the protein as multimers of more than 2,000 kDa [1]: 2% | percent of the protein as small oligomers of 70–80 kDa [1]: 12% | stoichiometry N [1]: 4
